Data set [1] deals with T1, IolR-His6 (Salmonella enterica serovar Typhimurium 14028) (UniProt Q8ZK65).
T1 sequence: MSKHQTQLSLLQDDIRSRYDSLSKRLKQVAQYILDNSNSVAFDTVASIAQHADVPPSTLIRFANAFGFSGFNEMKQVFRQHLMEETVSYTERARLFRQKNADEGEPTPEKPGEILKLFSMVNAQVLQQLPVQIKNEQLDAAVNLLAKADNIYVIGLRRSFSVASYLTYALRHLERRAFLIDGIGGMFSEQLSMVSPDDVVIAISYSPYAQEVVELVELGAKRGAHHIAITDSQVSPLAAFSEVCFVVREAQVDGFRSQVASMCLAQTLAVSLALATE
Briefly: SPR (OneToTwo). Conditions: EMSA: 100 ng DNA in 1x Tris/borate/EDTA, 20 ul, 45 min, 12% native PAA gel run at 4 C; SPR: streptavidin chip, 30 ul/min, 25 C, 0-330 nM IolR, buffer not in …. For orientation: Mobility shift assays separate free from complexed probe on a gel.

In data set [2] the test system is IolR-His6 (Salmonella enterica serovar Typhimurium 14028). Briefly: SPR (OneToTwo). Conditions: EMSA: 100 ng DNA in 1x Tris/borate/EDTA, 20 ul, 45 min, 12% native PAA gel run at 4 C, SPR: streptavidin chip, 30 ul/min, 25 C, 0-330 nM IolR, buffer not in ….
Data set [3] has the same test system. Briefly: SPR (Interaction Map). Particulars: EMSA: 100 ng DNA in 1x Tris/borate/EDTA, 20 ul, 45 min, 12% native PAA gel run at 4 C, SPR: streptavidin chip, 30 ul/min, 25 C, 0-330 nM IolR, buffer not in ….

For the substance “GGTGTGTCATCAATGGTTGTCTGTTGTGACGAGGAAAGATTTGGAAAAAATTATGATCTATATAGCATTTTTGTTTCATTTGGTGTGGTATAAAAATTCAAATTTCAGGGGGGTTTCGGCACCACA (double strand) [PreiD SPR fragment]”, in data set [1], the Kd – broadly, the constant that tells how readily two partners part at equilibrium – was determined as 321 nM.

Regarding PiolR SPR fragment, the equilibrium dissociation constant (Kd) in data set [2] (KD1, ka1 1.3e5 M-1s-1, kd1 5.5e-2 s-1) was 425 nM; in data set [2] (KD2, ka2 2.4e5 M-1s-1, kd2 1.4e-3 s-1), 6 nM. Turning to PiolT1 SPR fragment, the Kd in data set [3] (high-affinity component, peak weight 40.5%, ka 6.95e5 M-1s-1, kd 5.78e-4 s-1) was found to be 0.81 nM; in data set [3] (low-affinity component, peak weight 57.6%, ka 1.05e5 M-1s-1, kd 3.2e-2 s-1), 312 nM. Consider PreiD SPR fragment, for which the dissociation constant (Kd) in data set [2] (KD1, ka1 1.5e5 M-1s-1, kd1 4.9e-2 s-1) was found to be 321 nM; in data set [2] (KD2, ka2 2.1e5 M-1s-1, kd2 1.4e-3 s-1) it was 6.6 nM. In data set [1], “TTGCTCAGAACCCAGCCCGCCAGCAAATTCTGTACTGAAGGTAACCACAGCGCAATTTGAATGTTGTTAACTGTATGTTCAGTTCATTTGTGCTAATATGGTTATTTACGAAATTTTCGTTCTATTAGAGTATCATGCATGTCTAAACATCAAACTCAACTTTCCTTACTGCAGGATGATATCCGCAG (double strand) [PiolR SPR fragment]” came in with a Kd of 425 nM. In other words, the sub-micromolar range.

These data come from publication PMC5349611.
